Literature values as cited in publication PMC11497281.

Target: Asp27 (UniProt position 27, WNLPADLAWFK)

## Dihydrofolate reductase (DHFR) (Escherichia coli)
  pKa: approximately 6.5
